Data published in paper PMC9352680, “A comprehensive thermodynamic model for RNA binding by the Saccharomyces cerevisiae Pumilio protein PUF4”.
Substitutions are numbered along the chain they refer to. Names and notes keep the numbering of the source.

T1: PUF4 RNA-binding domain (Saccharomyces cerevisiae, UniProt P25339 537-888)
T1 sequence: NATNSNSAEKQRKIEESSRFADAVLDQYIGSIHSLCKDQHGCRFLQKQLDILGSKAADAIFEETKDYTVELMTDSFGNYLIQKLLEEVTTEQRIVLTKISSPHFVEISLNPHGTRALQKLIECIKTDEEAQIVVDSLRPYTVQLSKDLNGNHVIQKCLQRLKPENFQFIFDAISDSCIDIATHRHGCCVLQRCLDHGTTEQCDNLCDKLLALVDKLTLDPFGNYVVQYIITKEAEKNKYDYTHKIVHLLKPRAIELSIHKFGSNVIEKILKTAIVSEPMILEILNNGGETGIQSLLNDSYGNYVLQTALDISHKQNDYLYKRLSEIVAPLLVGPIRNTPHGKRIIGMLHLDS

B1: Ic_S2_P4E.1_K4.1_C4.1_H4.1_A4.1_[T5A]_[T7C]_F4.1_[A9T]_T4.1 (ssRNA)
RNA: UUUGAUUAAUAUGAUAUCGUUCUUUCUUGUAAACUUUUCUUUCUCGAUAUCAUAUUAAUCUUU
B2: Ic_S2_P4E.1_K4.1_C4.1_H4.1_A4.1_[A6C]_F4.1_[T8C]_[A9G]_T4.1 (ssRNA)
RNA: B1 RNA with A32U, A33C, C34U, U35C, U36G
B3: Ic_S2_P4E.1_K4.1_C4.1_H4.1_A4.1_[A6C]_F4.1_[T8A]_[A9G]_T4.1 (ssRNA)
RNA: B1 RNA with A32U, A33C, C34U, U35A, U36G
B4: Ic_S2_P4E.1_K4.1_C4.1_H4.1_A4.1_[A6C]_[T7C]_F4.1_[T8G]_[A9G]_T4.1 (ssRNA)
RNA: B1 RNA with A32U, A33C, U35G, U36G
B5: Ic_S2_P4E.1_K4.1_C4.1_H4.1_A4.1_[A6C]_[T7A]_F4.1_[A9T]_T4.1 (ssRNA)
RNA: B1 RNA with A32U, A33C, C34A
B6: Ic_S2_P4E.1_K4.1_C4.1_H4.1_A4.1_[A6C]_[T7C]_F4.1_[T8A]_T4.1 (ssRNA)
RNA: B1 RNA with A32U, A33C, U35A, U36A
B7: Ic_S2_P4E.1_K4.1_C4.1_H4.1_A4.1_[A6G]_[T7C]_F4.1_[T8A]_[A9G]_T4.1 (ssRNA)
RNA: B1 RNA with A32U, A33G, U35A, U36G
B8: Ic_S2_P4E.1_K4.1_C4.1_H4.1_A4.1_[A6C]_[T7C]_F4.1_[T8G]_[A9T]_T4.1 (ssRNA)
RNA: B1 RNA with A32U, A33C, U35G
B9: Ic_S2_P4E.1_K4.1_C4.1_H4.1_A4.1_[A6G]_[T7C]_F4.1_[T8A]_[A9T]_T4.1 (ssRNA)
RNA: B1 RNA with A32U, A33G, U35A
B10: Ic_S2_P4E.1_K4.1_C4.1_H4.1_A4.1_[T5A]_[T7A]_F4.1_[A9G]_T4.1 (ssRNA)
RNA: B1 RNA with C34A, U36G
B11: Ic_S2_P4E.1_K4.1_C4.1_H4.1_A4.1_[A6G]_[T7C]_F4.1_[T8C]_[A9T]_T4.1 (ssRNA)
RNA: B1 RNA with A32U, A33G, U35C
B12: Ic_S2_P4E.1_K4.1_C4.1_H4.1_A4.1_[A6G]_[T7G]_F4.1_[T8C]_[A9G]_T4.1 (ssRNA)
RNA: B1 RNA with A32U, A33G, C34G, U35C, U36G
B13: Ic_S2_P4E.1_K4.1_C4.1_H4.1_A4.1_[A6C]_F4.1_[T8A]_[A9T]_T4.1 (ssRNA)
RNA: B1 RNA with A32U, A33C, C34U, U35A
B14: Ic_S2_P4E.1_K4.1_C4.1_H4.1_A4.1_[T5A]_F4.1_[T8A]_[A9G]_T4.1 (ssRNA)
RNA: B1 RNA with C34U, U35A, U36G
B15: Ic_S2_P4E.1_K4.1_C4.1_H4.1_A4.1_[A6G]_F4.1_[T8C]_[A9T]_T4.1 (ssRNA)
RNA: B1 RNA with A32U, A33G, C34U, U35C
B16: Ic_S2_P4E.1_K4.1_C4.1_H4.1_A4.1_[A6C]_[T7A]_F4.1_[T8C]_T4.1 (ssRNA)
RNA: B1 RNA with A32U, A33C, C34A, U35C, U36A
B17: Ic_S2_P4E.1_K4.1_C4.1_H4.1_A4.1_[A6G]_F4.1_[T8A]_[A9T]_T4.1 (ssRNA)
RNA: B1 RNA with A32U, A33G, C34U, U35A
B18: Ic_S2_P4E.1_K4.1_C4.1_H4.1_A4.1_[T5A]_[T7A]_F4.1_[T8C]_[A9C]_T4.1 (ssRNA)
RNA: B1 RNA with C34A, U35C, U36C
B19: Ic_S2_P4E.1_K4.1_C4.1_H4.1_A4.1_[A6G]_F4.1_[T8G]_[A9C]_T4.1 (ssRNA)
RNA: B1 RNA with A32U, A33G, C34U, U35G, U36C
B20: Ic_S2_P4E.1_K4.1_C4.1_H4.1_A4.1_[A6C]_[T7A]_F4.1_[T8C]_[A9G]_T4.1 (ssRNA)
RNA: B1 RNA with A32U, A33C, C34A, U35C, U36G
B21: Ic_S2_P4E.1_K4.1_C4.1_H4.1_A4.1_[A6G]_[T7C]_F4.1_[T8C]_T4.1 (ssRNA)
RNA: B1 RNA with A32U, A33G, U35C, U36A
B22: Ic_S2_P4E.1_K4.1_C4.1_H4.1_A4.1_[A6C]_F4.1_[T8G]_[A9T]_T4.1 (ssRNA)
RNA: B1 RNA with A32U, A33C, C34U, U35G
B23: Ic_S2_P4E.1_K4.1_C4.1_H4.1_A4.1_[A6G]_F4.1_[T8A]_[A9C]_T4.1 (ssRNA)
RNA: B1 RNA with A32U, A33G, C34U, U35A, U36C
B24: Ic_S2_P4E.1_K4.1_C4.1_H4.1_A4.1_[A6C]_[T7G]_F4.1_[A9C]_T4.1 (ssRNA)
RNA: B1 RNA with A32U, A33C, C34G, U36C
B25: Ic_S2_P4E.1_K4.1_C4.1_H4.1_A4.1_[A6T]_[T7G]_F4.1_[T8G]_[A9C]_T4.1 (ssRNA)
RNA: B1 RNA with A32U, A33U, C34G, U35G, U36C
B26: Ic_S2_P4E.1_K4.1_C4.1_H4.1_A4.1_[A6C]_[T7C]_F4.1_[A9C]_T4.1 (ssRNA)
RNA: B1 RNA with A32U, A33C, U36C
B27: Ic_S2_P4E.1_K4.1_C4.1_H4.1_A4.1_[A6C]_[T7C]_F4.1_[T8A]_[A9C]_T4.1 (ssRNA)
RNA: B1 RNA with A32U, A33C, U35A, U36C
B28: Ic_S2_P4E.1_K4.1_C4.1_H4.1_A4.1_[A6G]_[T7C]_F4.1_[T8A]_T4.1 (ssRNA)
RNA: B1 RNA with A32U, A33G, U35A, U36A
B29: Ic_S2_P4E.1_K4.1_C4.1_H4.1_A4.1_[A6C]_[T7C]_F4.1_[T8C]_[A9T]_T4.1 (ssRNA)
RNA: B1 RNA with A32U, A33C, U35C
B30: Ic_S2_P4E.1_K4.1_C4.1_H4.1_A4.1_[A6G]_[T7C]_F4.1_[A9T]_T4.1 (ssRNA)
RNA: B1 RNA with A32U, A33G
B31: Ic_S2_P4E.1_K4.1_C4.1_H4.1_A4.1_[A6C]_[T7G]_F4.1_[A9G]_T4.1 (ssRNA)
RNA: B1 RNA with A32U, A33C, C34G, U36G
B32: Ic_S2_P4E.1_K4.1_C4.1_H4.1_A4.1_[A6G]_F4.1_[T8G]_[A9G]_T4.1 (ssRNA)
RNA: B1 RNA with A32U, A33G, C34U, U35G, U36G
B33: Ic_S2_P4E.1_K4.1_C4.1_H4.1_A4.1_[A6T]_[T7G]_F4.1_[T8G]_[A9T]_T4.1 (ssRNA)
RNA: B1 RNA with A32U, A33U, C34G, U35G
B34: Ic_S2_P4E.1_K4.1_C4.1_H4.1_A4.1_[A6G]_F4.1_[T8G]_[A9T]_T4.1 (ssRNA)
RNA: B1 RNA with A32U, A33G, C34U, U35G
B35: Ic_S2_P4E.1_K4.1_C4.1_H4.1_A4.1_[A6C]_F4.1_[T8C]_[A9T]_T4.1 (ssRNA)
RNA: B1 RNA with A32U, A33C, C34U, U35C
B36: Ic_S2_P4E.1_K4.1_C4.1_H4.1_A4.1_[A6G]_[T7G]_F4.1_[T8C]_[A9T]_T4.1 (ssRNA)
RNA: B1 RNA with A32U, A33G, C34G, U35C
B37: Ic_S2_P4E.1_K4.1_C4.1_H4.1_A4.1_[A6G]_[T7C]_F4.1_[T8G]_[A9G]_T4.1 (ssRNA)
RNA: B1 RNA with A32U, A33G, U35G, U36G
B38: Ic_S2_P4E.1_K4.1_C4.1_H4.1_A4.1_[T5A]_[T7A]_F4.1_[A9C]_T4.1 (ssRNA)
RNA: B1 RNA with C34A, U36C
B39: Ic_S2_P4E.1_K4.1_C4.1_H4.1_A4.1_[A6C]_[T7C]_F4.1_[T8G]_[A9C]_T4.1 (ssRNA)
RNA: B1 RNA with A32U, A33C, U35G, U36C
B40: Ic_S2_P4E.1_K4.1_C4.1_H4.1_A4.1_[T5A]_F4.1_[T8A]_[A9C]_T4.1 (ssRNA)
RNA: B1 RNA with C34U, U35A, U36C
B41: Ic_S2_P4E.1_K4.1_C4.1_H4.1_A4.1_[T5A]_F4.1_[T8G]_[A9T]_T4.1 (ssRNA)
RNA: B1 RNA with C34U, U35G
B42: Ic_S2_P4E.1_K4.1_C4.1_H4.1_A4.1_[A6C]_[T7A]_F4.1_[T8C]_[A9T]_T4.1 (ssRNA)
RNA: B1 RNA with A32U, A33C, C34A, U35C
B43: Ic_S2_P4E.1_K4.1_C4.1_H4.1_A4.1_[A6C]_[T7A]_F4.1_[T8A]_[A9C]_T4.1 (ssRNA)
RNA: B1 RNA with A32U, A33C, C34A, U35A, U36C
B44: Ic_S2_P4E.1_K4.1_C4.1_H4.1_A4.1_[A6C]_F4.1_[T8C]_[A9C]_T4.1 (ssRNA)
RNA: B1 RNA with A32U, A33C, C34U, U35C, U36C
B45: Ic_S2_P4E.1_K4.1_C4.1_H4.1_A4.1_[A6G]_[T7G]_F4.1_[A9T]_T4.1 (ssRNA)
RNA: B1 RNA with A32U, A33G, C34G
B46: Ic_S2_P4E.1_K4.1_C4.1_H4.1_A4.1_[A6G]_[T7C]_F4.1_[T8A]_[A9C]_T4.1 (ssRNA)
RNA: B1 RNA with A32U, A33G, U35A, U36C
B47: Ic_S2_P4E.1_K4.1_C4.1_H4.1_A4.1_[A6C]_[T7A]_F4.1_[A9G]_T4.1 (ssRNA)
RNA: B1 RNA with A32U, A33C, C34A, U36G
B48: Ic_S2_P4E.1_K4.1_C4.1_H4.1_A4.1_[A6G]_F4.1_[T8C]_[A9C]_T4.1 (ssRNA)
RNA: B1 RNA with A32U, A33G, C34U, U35C, U36C

Target: T1, PUF4 RNA-binding domain
Test: Mg; RNA-MaP; 20 mM Na-HEPES pH 7.4, 30 mM KOAc, 0.75 mM MgCl2, 0.1% Tween-20, 5% glycerol, 0.1 mg/mL BSA, 2 mM DTT; 25 C; 0.0125-409.6 nM protein
Conditions: tags: N-His6-TEV cleaved; C-SNAP kept, Cy3B-labelled; label: tethered on chip by stalled RNA polymerase

Row | Binder | Kd
1 | UCUCUUUGUAUAUGUUCUCUU (ssRNA) [Ic_S1_P4E.1_K4.1_C4.1_H4.1_A4.1_F4.1_[T8G]_[A9T]_T4.1] | 15.6 nM
2 | UCUCUUUGUAUAUGCUCUCUU (ssRNA) [Ib_S1_P4E.1_K4.1_C4.1_H4.1_A4.1_F4.1_[T8G]_[A9C]_T4.1] | 26.8 nM
3 | UCUCUUUGUAUAUCGUCUCUU (ssRNA) [Ib_S1_P4E.1_K4.1_C4.1_H4.1_A4.1_F4.1_[T8C]_[A9G]_T4.1] | 26.1 nM
4 | UCUCUUUGUAUAUCCUCUCUU (ssRNA) [Ib_S1_P4E.1_K4.1_C4.1_H4.1_A4.1_F4.1_[T8C]_[A9C]_T4.1] | 18.9 nM
5 | UCUCUUUGUAUAUGGUCUCUU (ssRNA) [Ib_S1_P4E.1_K4.1_C4.1_H4.1_A4.1_F4.1_[T8G]_[A9G]_T4.1] | 47.2 nM
6 | B1 | 14.6 nM
7 | B2 | 23.6 nM
8 | B3 | 32.9 nM
9 | B4 | 866 nM
10 | B5 | 3.46 nM
11 | B6 | 369 nM
12 | B7 | 1090 nM
13 | B8 | 149 nM
14 | B9 | 155 nM
15 | B10 | 21 nM
16 | B11 | 404 nM
17 | B12 | 1670 nM
18 | B13 | 7.99 nM
19 | B14 | 67.7 nM
20 | B15 | 57 nM
21 | B16 | 347 nM
22 | B17 | 26.9 nM
23 | B18 | 385 nM
24 | B19 | 40 nM
25 | B20 | 228 nM
26 | B21 | 29.3 nM
27 | B22 | 17.9 nM

Row | Binder | Kd
28 | B23 | 55.8 nM
29 | B24 | 507 nM
30 | B25 | > 2300 nM
31 | B26 | 27.5 nM
32 | B27 | 820 nM
33 | B28 | 239 nM
34 | B29 | 166 nM
35 | B30 | 23.9 nM
36 | B31 | 59.3 nM
37 | B32 | 215 nM
38 | B33 | 1200 nM
39 | B34 | 17 nM
40 | B35 | 17.7 nM
41 | B36 | 619 nM
42 | B37 | 1310 nM
43 | B38 | 65.2 nM
44 | B39 | 800 nM
45 | B40 | 23.4 nM
46 | B41 | 164 nM
47 | B42 | 76.1 nM
48 | B43 | 309 nM
49 | B44 | 28.4 nM
50 | B45 | 224 nM
51 | B46 | 848 nM
52 | B47 | 4.75 nM
53 | B48 | 32.5 nM
